Laboratory results taken from the nanobody polyreactivity screen of Harvey et al. (2022).

Assay: yeast display, Sf9 membrane polyspecificity reagent, FACS + sequencing; frameworks hold sequencing errors
Procedure, shortened: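 In a synthetic yeast display library (Saccharomyces cerevisiae BJ5465), nanobody expression was induced with galactose for 36–48 hours. FACS gates were set low and high (top ~1%) using anti-HA fluorescence for expression and streptavidin fluorescence for binding of the Sf9 membrane reagent. Each polyreactivity label is drawn from the gate of origin.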

Sequence | polyreactivity (PSR sort gate)
QVQLVESGGGLVQAGGSLRLSCAASGFTFQYYTMGWYRQAPGKERELLAAITYSGSTYYADSVKGRFTISRDNAKNTVYLQMNSLKPEDTAVYYCNVYRGRYLYAWRPLGYWGQGTQVTVSS | high polyreactivity
QVQLVESGGGLVQAGGSLRLSCAASGRISGVNAMGWYRQAPGKERELVATISGSGGRTYYADSVKGRFTISRDNAKNTVYLQMNSLKPEDTAVYYCAAGPPRADYDYWGQGTQVTVSS | low polyreactivity
QVKLVESGGGLVQAGGSLRLSCADSGLIFGRNARGWYRQAPGKERELVAAISSSGVRTFYADSVKGRFTISRDNAKNTVYLQMNSLKPEDTAVYYCATRGRVYPTKYSLDEDYWGQGTQVTVSS | high polyreactivity
QVQLVESGGGLVQAGGSLRLSCAASGRTFYGYAMGWYRQAPGKERELVAGITFRGSSTYYADSVKGRFTISRDNAKNTVYLQMNSLKPEDTAVYYCNVPYGNSHVGYDYWGQGTQVTVSS | high polyreactivity
QVQHVESGGGLVQAGGSLRLSCAASGRTFYRNAMGWSRQAPGKELELVAAITRSGGSTYYADSVKGRFTTSRDNAKNTVYLQMNSLQPEDTAVYYCARRLYPYRPTPYDYWGQGTQVTVSS | low polyreactivity
QVQLVESGGGLVQAGGSLRLSCAASGLTFVDYAMGWYRQAPGKERELVAAITSSGGSITYYADSVKGRFTISRDNAKNTVYLQMNSLKPEDTAVYYCNADYGIYTDSFRGPDYESWGQGTQVTVSS | low polyreactivity
QVQLVESGGGLVQAGGSLRLSCASSGRIFYYNTMGWYRQAPGKERELVAAINWSGTSTYYADSVKGRFTISRDNAKNTVYLQMNSLKPEDTAVYYCAAYYRYRVTYDYYYWGQGTQVTVSS | high polyreactivity
QVQLVESGGGLVQAGGSLRLSCAASGFTFGINAKGWYRQAPGKERELVAALSWSGGSTYYADSVKGRFTISRDNAKNTVYLQMNSLKPEDTAVYYCAVVWFSLWYKGSTFNRYDYWGQGTQVTVSS | low polyreactivity
QVQLVESGGGLVQAGGSLRLSCAASGGTFGRYAMGWYRQAPGKERELVAAITWRVGSTYADSVKGRFTISRDNAKNTVYLQMNSLKPEDTAVYYCAARRRAPGTKYYYWGQGTQVTVSS | low polyreactivity
QVQLVESGGGLVQAGGSLRLSCAASGRIFDYYAMAWYRQAPGKERELVSAISSNGVSTYYADSVKGRFTISRDNPKNTVYLQMNSLKPEDTAVYYCAADPTRHSSFPQYDSWGQGTQVTVSS | low polyreactivity
QVQLVESGGGLVQAGGSLRLSCAASGSTFAINAMGWYRQAPGTERELVAAIRYSTGRTYYADSVKGRFTISRDNAKNTVYLQMNSLKPEDTAVYYCAALGFTKYGSRFDYWGQGTQVTVSS | high polyreactivity
QVQLVESGGGLVQAGGSLRLSCSASGSTFSAYVMGWYRQAPGKERKLVAAITRSGVSTYYADSVKGRFTISRDNAKNTVYLQMNSLKPEDTAVYYCNKRVGFLYKYDYWGQGTQVTVSS | high polyreactivity
QVQLVESGGGLVQAGGSLRLSCAASGYTFPIYAMGWYRQAPGKERELVATISSGGRTNYADSVKGRFTISRDNAKNTVYLQMKSLKPEDTAVSYCNARRLGWHALYLYDYWGQGTQVTVSS | high polyreactivity
QDQVVESGGGLVQAGGSLRLSCAASGRIFFAYAMGLYRQAAGTERELVAAITSSGNTYYADSVKGRFTISRDNAKNTVFLQINSLKPEDTAVYYCATGYWELRYDYWGQGTQLTVSS | low polyreactivity
QVQLVESGGGLVQAGGSLRLSCAASGRTFYRYAMGWYRQAPGKEREYVASITRGGGITYYADSVKGRFTISRDNAKNTVYLQMNSLKPEDSAVYYCAARQYGPRYTFYYWGQGTQVTVSS | high polyreactivity
QVQLVESGGGLVQAGGSLRLICAASGSISYINAMGWYRQATGKERELDARIRSGDPTNYADSVKGRFTISRDNAKNTVYLQMNSLKPEDTAVYYCARRVTGTLYYTGYDYWGQGTQVTVSS | high polyreactivity
QVQLVESGGGLVQAGGSLRLSCAASGITFPSYAMGWYRQAPGKERELVATISRGDSTYYADSVKGRFTISRDNAKNTVYLQMNSLKPEDTAVYYCATRAYRLDPLQHDYWGQGTQVTVSS | low polyreactivity
QVQLVESGGGIVQAGGSLRLSCAASARIFGYNAMGWYRQAPGKERELVADITGSGGSTYYADSVKGRFTISRDNAKNTVYLQMNSLKPEDTAVYYCATPYAVYHVEYGYWGQGTQVTVSS | low polyreactivity
QVQLVESGGGLVQAGGSLRLSCAASGSTFWLYAMGWYRQAPGKERELVAAIRSGDRTNYADSVKGRFTISRDNAKNTVYLQMNSLKPEDTAVYYCAAVAYLNWTPHYYWGQGTQVTVSS | low polyreactivity
QVQLVESGGGLVQAGGSLRLSCAASGSTFTDYDMGWYRQAPGKERELVAAITSGGSTNYADSVKGRFTISRDNAKNTVYLQMNSLKPEDTAVYYCKVRPYGFDSEFDYWGQGTQVTVSS | low polyreactivity
QVQLVESGGGLVQAGGSLRLSCAASGRTFDGYAMGWYRQAPGKEREMVAAISRGGGNTRYADSVKGRFTISRDNAKNTVYLQMNSLKPEDTAVYYCNKLSFFPYITDEYWGQGTQVTVSS | high polyreactivity
QVQLVESGGGLVQAGGSLRISCAASGFIFGKNDMGWYRQATWKERELVAAITIGGSTNYADSVKGRFTFSRDNAKNTVYLQMNSLKPEDTAVYYCNADSYHYGTSLYNYWGQGTQLTVSS | low polyreactivity

Sequence | polyreactivity (PSR sort gate)
QVQLVESGGGLVQAGGSLRLSCAASGSTFRVNAMGWYRQAPGKERELVAAISSSGGITYYADSVKGRFTISRDNAKNTVYLQMNSLKPEDTAVYYCAKGTVIHVLYDYWGQGTQVTVSS | low polyreactivity
QVQLVESGGGLVQAGGSLRLSCAASGSIFADNAMGWYRQAPGKEMELVADISWSGGRTYYADSVKGRFTISRDNAKNTVYLQMNSLKPEDTAVYYCAARYRDYRAGFDYWGQGTQLTVSS | high polyreactivity
QVQLVESGGGLVQAGGSLRLSCAASGLIFGGNAMGWYRQAPGKERELVAAISRTGGRTYYADSVKGRFTISRDNAKNTVYLQMNSLKPDDTAVYFCAAAAQRPEGYYWGQGTQVTVSS | high polyreactivity
QVQLVESGGGLVQAGGSLRLSCAASGRIFDWYAMGWYRQAPGKERELVAAITTSADRTYYADSVKGRFTISRDNAKNTVYLQMNSMKPEDTAVYYCNADAFGGYDEYDYWGQGTQVTVSS | low polyreactivity
QVQLVESGGGLVQAGGSLRLSCAASGRTIYRYGMGWYRQAPGKERELVADITWRGDSTYYADSVKGRFTISRDNAKNTVYLQMNCLKPEDTAVYYCATRPRGYRWGKLYDYWGQGTQVTVSS | high polyreactivity
QVQLVESGGGLVQAGGSLRLSCAASGSTIATYAMGWYRQAPGKERELVATISSSGSGTYYADSVKGRFTISRDNAKNTVYLQMNSLKPEDTAVYYCAVDSRGKLGISGEYGYWGQGSQVTVSS | low polyreactivity
QVQLVESGGCLVQAGGSLRLSCAASGFTFPYYAMGWDRQAPGKERELVAAISSGGRTNYADSVKGRFTISRDNAKNTVYLQMNSLKPEDTAVYYCATRSYVFAWEFNYWGQGTQVTVSS | high polyreactivity
QVQLVESGGGLVQAGGSLRLSCAASGFTFAVYTMGRYIQGPGKERELVAAITASGGSTHYADSVKGRFTISRDNAKNTVYIQMNSLKPEDTAVYYCAARPRLYQYYYWGQGTQVTVSS | high polyreactivity
QVQLVESGGGLVQAGGSLRLSCAASGSTFVRYAMGWYRQAPGKERELVAAISSNGGSTYYADSVKGRFTISRDNAKNSVYLQMNSLKPEDTAVYYCAKSRVRKYYWGQGTQVTVSS | high polyreactivity
QVQLVESGGGLVQAGGSLRLICAASGYTFEYNAMGWSRQAPGKEREFVATITASGDSTYYADSVKGRFTISRDNAKNTVYLQMNSLKPEDTAVYYCATEKRDVYFTAKYDYWGQGTQVTVSS | low polyreactivity
QVQLVESGGGLVQAGGSLRLSCAASGITFLYYAMGWYRQAPGQERELVAAITSSGGRTYYADSVKGRFTISRDNAKNTVYLQMNSLKPEDTAVYYCAADSRTYNGGYYWGQGTQVTVSS | high polyreactivity
QVQLVESGGGLVQAGGSLRLSCAASGRIFNLYDMGWYRQAPGKERELVAAIRIGDRTYYADSVKGRFTISRDNAKNTVYLQMNSLKPEDTAVYYCNREYLSNRDKRFYYWGQGTQVTVSS | low polyreactivity
QVQLVESGGGLVQAGGSLPLSCAASGRTFYYYAMGWYRQAPGKERELVAAISWSGGRTYYADSVKGSFTISRDNAKNTVYLQMNSLKPADTAVYYCNAEPPRGYTVSSGGEMDYWGQCTQVTVSS | low polyreactivity
QVQLVESGGGLVQAGGSLRLSSAASGSTFRYYPMGWYRQAPGKERELLARISWRGGSTYYADSVKGRFTISRDNAKNTVYLQMNSLKPEDTAVYYCAAVRWVRYRTSAYEYWGQGTQVTVSS | high polyreactivity
QVQLVESGGGLVQAGGSLRLSCAASGSILGYYAMGWYRQAPGTEREFVAAITRSGSRTYYADSVKGRFTISRDNAKNTVNLHMNSLKPEDTAVYYCAKKGLFQGWPTLVDYWGEGTQVTVSS | high polyreactivity
QVQLVESGGGLVQAGGSLRLSCAASGFTFRKYAMGWYRPAPGKERELVAGITSGGSTNYADSVKGRFTISRDNAKNTVYLQMNSLKPEDTSVYYCNAARYYAYIGDYWGQGTQVTVSS | high polyreactivity
QVQLVESGGGLVQAGGSLRLSCAASGRTFGYNAMGWYSQAPGKETELVAAINWSDASTYYADSVKGRFTISRDNAKNTVSLQMNSLKPEDTAVYYCAADYSYIYGFDYWGQGTLVTVSS | low polyreactivity
QVQLVESGGGLVQAGGSLRLSCAASGLIFSYNAMGWYRQAPGKERELVAAISYSGGSTYYADSVKGRYTISRDNAKYTVYLQMNSLKPEDTAVYYCAAVLSPDFYYWGQGTQVTVSS | high polyreactivity
QVQLVESVGGLVQAGGSLRLSGAASGRTFSSYALGWYRQAPGKVRELVAGIRLSTGSTYYADSVKGRFTISRDNAKNTVYLQMNSLQPEDTAVYYCNARGWAYSGAKSYYWGQGTQVTLSS | high polyreactivity
QVQLVESGGGLVQAGGSLRLSCAASGLTFYQYAMGWYRQAPGKERELVAAISKSAGSTYYADSVKGSFTISRDNAKNTVYLQMNSLKPEDTAVYFCAARVLRLRYDYWGQGTQVTVSS | high polyreactivity
QVQHVESGGGLVQEGGSLRVSCAASGSIFGTNDMGWYRQAPGKERELVAAISSSGASTYYADSVKGRFTISRDNAKNTVYLQMNSLKPEDTAVYYCARGYTYQYSSFYYWGQGTQVTVSS | low polyreactivity
